Laboratory results as given in patent US20110190385A1 (UNIVERSITY OF CENTRAL FLORIDA RESEARCH FOUNDATION, published 2011).

Biological target: HIV-1 gp41 (Env of HIV-1 BaL) (HIV-1 BaL)
Experiment: cell-based or functional assay

B1: RC-101 (single lysine congener of retrocyclin) (peptide)
peptide: cyclo(RCICGRGICRCICGKGIC)
modifications: disulfide (positions not given here); also: three disulfide bridges, pairing not given here
IC50 of inhibition of HIV-1 BaL entry in TZM-bl cells (luciferase): 2 µg/mL
